In US20100158890A1, “USE OF THROMBIN MUTANTS TO INHIBIT THE ANTICOAGULATION EFFECT OF THROMBIN INHIBITORS” (priority 2006, published 2010):

What was measured:
[1] = tested on: bivalirudin (Angiomax, Medicines Company)
[2] = tested on: lepirudin (Refludan, Berlex)
[3] = tested on: platelet-poor plasma; assay: Thrombin generation monitoring by Thrombinoscope in platelet-poor plasma; type: biochemical, human; conditions: for effect on onset and peak of thrombin generation: anticoagulant alone in plasma
Method: Fluorogenic substrate (Z-Gly-Gly-Arg-AMC HCl, molecular weight 616.07) for thrombin generation assay was obtained from Bachem (Switzerland). HEPES (N-2-hydroxyethyl piperazine-N′-2-ethanesulfonic acid), CaCl2, BSA (bovine serum albumin) and DMSO (dimethyl sulfoxide) were from Sigma (Sigma, St Louis, Mo.). Tissue factor was dissolved in 10 ml sterile water and then further diluted with working HEPES buffer (20 mM HEPES, 140 mM NaCl, 5 mg/ml BSA), (1:75). For the preparation of Fluca-buffer 1.75 ml HEPES buffer (pH 7.35, 20 mM HEPES, 60 mg/ml BSA was added to 0.2 ml of 1 M CaCl2 in a glass test tube, mixed, and warmed up for few minutes at 37° C. Just before use 50 μl of 100 mM fluorogenic substrate made in DMSO was added to the HEPES-CaCl2 solution and mixed to dissolve. This buffer now contains 2.5 mM substrate and 100 mM CaCl2.
(§1) For plasma collection, whole blood samples (5 ml, in 3.2% trisodium citrate) were obtained after institutional approval and informed written consent from 6 volunteers that had not received any medication in the preceding 2 weeks. For APTT and thrombin generation experiments blood was centrifuged to obtain platelet poor plasma (PPP) for 20 min at 3000×g. PPP was used immediately or stored for not more than a couple of days at −20° C. For TEG® measurements, whole blood in citrate was used after recalcification within 5 min from collection. In all experiments, the final concentration of recombinant thrombin mutant was 5 μg/ml.
In order to evaluate this complex regulation of thrombin generation, the Thrombinoscope® system, which enables automated acquisition of thrombin generation time courses in platelet-rich plasma or in platelet-poor plasma (Hemker et al. (2003) Pathophysiology of Haemostasis & Thrombosis, 33:4-15). The method for the automated estimation of endogenous thrombin potential using a commercially available fluorogenic substrate (Z-GlyGly-Arg-AMC) has been described in detail elsewhere (Hemker et al. (2003) Pathophysiology of Haemostasis & Thrombosis, 33:4-15). Briefly, for the thrombin generation experiments, 80 μl of PPP, and 20 μl of the thrombin generation trigger are added to wells of 96-well microtiter plate (Microfluor2, Labsystems, Finland), followed by 20 μl of substrate-calcium chloride buffer. The reaction is monitored using microplate fluorometer (Fluoroskan Ascent, Labsystems, Finland) set at 390 nm (excitation wavelength) and 460 nm (emission wavelength). […] Additionally, heparin (0.2 or 0.5 U/ml) was also evaluated. Heparin reversal with an appropriate concentration of protamine was used for comparison (1 mg of protamine for each 100 units (1 mg) of heparin). To evaluate the effects of the thrombin mutant on protein C activation (Regnault et al. (2003) Thrombosis and Haemostasis, 89:208-212), soluble thrombomodulin (0.75 μg/ml, final concentration) was added to the sample plasma containing the thrombin mutant.

[4] = tested on: whole blood; assay: Thrombelastography (TEG) of clot formation in recalcified whole blood; type: biochemical, human; conditions: for effect on TEG amplitude (strength of clot): anticoagulant alone: bivalirudin 5 μg/ml, lepirudin 1 μg/ml, argatroban 0.5 μg/ml
Method: as §1
The viscoelastic measurement of clot formation was evaluated using Thrombelastogarphy (TEG®, Haemoscope, Niles, Ill.). […] For TEG® measurements, 360 μl aliquots of the samples were transferred to disposable cups containing […] 0.4 M CaCl2. Effects of W215A/E217A on TEG® variables were evaluated after adding this thrombin mutant (5 μg/ml, final concentration) to respective samples. The TEG® variables, the reaction time (in minutes) which represents the onset of clot formation, and maximum amplitude (in mm) which reflects the strength of clot were compared for different groups (Kawasaki et al. (2004) Anesthesia & Analgesia, 99:1440-1444).

[5] = off-pump coronary surgery, cited from earlier work
[6] = molecular target: α-thrombin (Homo sapiens, UniProt P00734); conditions: association constant for α-thrombin and inhibitor; cited from earlier work

Compound	activated partial thromboplastin time (APTT) in bivalirudin-treated plasma [1]	activated partial thromboplastin time (APTT) in lepirudin-treated plasma [2]	effect on onset and peak of thrombin generation [3]	effect on TEG amplitude (strength of clot) [4]	kon [6]	other results
human thrombin mutant W215A/E217A	The addition of W215A/E217A to plasma shifted APTT values toward normal ranges.	The addition of W215A/E217A to plasma shifted APTT values toward normal ranges.				TEG reaction time and amplitude in bivalirudin-treated whole blood [1]: With addition of W215A/E217A (5 µg/ml), both reaction time and amplitude variables were reversed to normal for all DTIs; onset (latency) of thrombin generation, Thrombinoscope, bivalirudin-treated plasma [1]: W215A/E217A was effective in shortening prolonged latency of thrombin generation.; TEG reaction time and amplitude in lepirudin-treated whole blood [2]: With addition of W215A/E217A (5 µg/ml), both reaction time and amplitude variables were reversed to normal for all DTIs; onset (latency) of thrombin generation, Thrombinoscope, lepirudin-treated plasma [2]: W215A/E217A was effective in shortening prolonged latency of thrombin generation.
CC1CNc2c(cccc2S(=O)(=O)N[C@@H](CCCNC(=N)N)C(=O)N2CC[C@@H](C)C[C@@H]2C(=O)O)C1 (stereo partly drawn) [Argatroban, argatroban]			prolonged the onset and reduced the peak	reduced		peak thrombin level ([3]; argatroban at 0.5 and 1 μg/ml, with W215A/E217A added (FIG. 6D)): > 100 nM
Protamine sulfate						effect on thrombin generation in the presence of heparin ([3]; heparin 0.2 U/ml, W215A/E217A 5 μg/ml or protamine sulfate 2 μg/ml): reversed the peak level; reversal of heparin on TEG (onset, clot strength) ([4]; protamine sulfate 5 μg/ml, heparin 0.5 U/ml): restores the onset completely, and to a lesser extent clot strength
bivalirudin			prolonged the onset of thrombin generation, but not the peak level	minimally affected	430 10^6 M^−1s^−1	range of blood loss ([5]; n=50): 320-4,909 ml; 12-hour post-operative chest tube drainage, median [5]: 793 mL
catalytic-site blocked thrombin (thrombin saturated with Phe-Pro-Arg-chlormethylketone)	The active site blocked thrombin (FPR-TH) had no effect on APTT prolonged with either DTIs or heparin.	The active site blocked thrombin (FPR-TH) had no effect on APTT prolonged with either DTIs or heparin.				
lepirudin			prolonged the onset of thrombin generation, but not the peak level	minimally affected	290 10^6 M^−1s^−1	
